Consider five molecules from patent publication US6863888 (University of California, dated 2005).

The labels stand for the following.
B1: c-Jun N-terminal protein kinase (JNK), 46 kD form, endogenous kinase from cell extracts (enzyme)
chain: MSRSKRDNNFYSVEIGDSTFTVLKRYQNLKPIGSGAQGIVCAAYDAILERNVAIKKLSRPFQNQTHAKRAYRELVLMKCVNHKNIIGLLNVFTPQKSLEEFQDVYIVMELMDANLCQVIQMELDHERMSYLLYQMLCGIKHLHSAGIIHRDLKPSNIVVKSDCTLKILDFGLARTAGTSFMMTPYVVTRYYRAPEVILGMGYKENVDLWSVGCIMGEMVCHKILFPGRDYIDQWNKVIEQLGTPCPEFMKKLQPTVRTYVENRPKYAGYSFEKLFPDVLFPADSEHNKLKASQARDLLSKMLVIDASKRISVDEALQHPYINVWYDPSEAEAPPPKIPDKQLDEREHTIEEWKELIYKEVMDLEERTKNGVIRGQPSPLAQVQQ
B3: epitope-tagged JNK1 (Flag epitope Asp-Tyr-Lys-Asp-Asp-Asp-Asp-Lys inserted between codons 1 and 2), expressed in COS cells (enzyme)
chain: MDYKDDDDKSRSKRDNNFYSVEIGDSTFTVLKRYQNLKPIGSGAQGIVCAAYDAILERNVAIKKLSRPFQNQTHAKRAYRELVLMKCVNHKNIIGLLNVFTPQKSLEEFQDVYIVMELMDANLCQVIQMELDHERMSYLLYQMLCGIKHLHSAGIIHRDLKPSNIVVKSDCTLKILDFGLARTAGTSFMMTPYVVTRYYRAPEVILGMGYKENVDLWSVGCIMGEMVCHKILFPGRDYIDQWNKVIEQLGTPCPEFMKKLQPTVRTYVENRPKYAGYSFEKLFPDVLFPADSEHNKLKASQARDLLSKMLVIDASKRISVDEALQHPYINVWYDPSEAEAPPPKIPDKQLDEREHTIEEWKELIYKEVMDLEERTKNGVIRGQPSPLAQVQQ
notes: Tag inserted between codons 1 and 2 of the JNK1 cDNA in pCMV5; also called immunopurified JNK1

Assay [1] has as its target GAL4-cJun(1-223), GAL4 DNA binding domain fused to c-Jun AA 1-223 (yeast; human, UniProt P04386 1-147). Kind of assay: cell-based or functional assay.
The target in assay [2] is B3. Kind of assay: immunopurified JNK1 on GST-Jun fusion proteins bound to GSH-agarose, solid-phase kinase assay.
Procedure: (§1) Clarified cell extracts were incubated with GST fusion proteins immobilized on GSH-agarose beads. […] The reaction was terminated after 10 mins at 30° C. and the products were resolved by SDS-PAGE. The incorporation of [^32P]phosphate was visualized by autoradiography and quantitated with a phosphorimager and ImageQuant software (Molecular Dynamics Inc., Sunnyvale, Calif.).
(§2) Mock-transfected COS cells were used as a control. After 1 hour, the cells were lysed and subjected to immunoprecipitation with the M2 monoclonal antibody. […] The phosphorylated proteins were resolved by SDS-PAGE and detected by autoradiography.
The target in assay [3] is T1, GSTcJun(wt), glutathione-S-transferase fused to c-Jun AA 1-223 (human, UniProt P08515 1-218 = GST).
T1 construct: Expressed in E. coli, held on GSH-agarose beads; also called human GSTcJun
The assay is described as above.
Procedure: as §1, §2

The target of assay [4] is B3. Kind of assay: COS cell lysates on GST-cJun(1-79) immobilized on GSH-agarose beads, Western blot with M2 antibody.
Procedure: COS cell extracts (250 µg) were incubated with 20 µg GST or GST-cJun immobilized on 10 µl GSH-agarose at 4° C. for 5 hours.
Mock-transfected COS cells were used in control experiments (lanes 1 & 2). The cells were either untreated (lanes 1 & 3) or irradiated with 40 J/m^2 UV-C (lanes 2, 4, & 5). Cell lysates were prepared and incubated with GST-cJun(1-79) (lanes 1–4) or GST (lane 5) immobilized on GSH-agarose beads.
The target in assay [5] is B1. Kind of assay: GSTcJun deletion mutants on GSH-agarose, UV-irradiated HeLa extract; solid-phase kinase assay and eluted-kinase assay.

Consider B1, for which, in assay [1], the “Ha-Ras responsiveness, CAT activity of 5xGAL4-Elb-CAT reporter in F9 cells” value worked out at 19 fold induction and the “UV responsiveness, CAT activity of 5xGAL4-Elb-CAT reporter in F9 cells” value is 7.5 fold.

B2: GSTcJun(33-223), GST fused to c-Jun AA 33-223 (other)
chain: ILKQSMTLNLADPVGSLKPHLRAKNSDLLTSPDVGLLKLASPELERLIIQSSNGHITTTPTPTQFLCPKNVTDEQEGFAEGFVRALAELHSQNTLPSVTSAAQPVNGAGMVAPAVASVAGGSGSGGFSASLHSEPPVYANLSNFNPGALSSGGGAPSYGAAGLAFPAQPQQQQQPPHHLPQQMPVQHPRLQ
notes: also called removal of AA 1-32; not shown: GST carrier (pGEX3X, Pharmacia) and the vector junction residues
For B2, the binding result in assay [2] is “binds”.
As for B3, the binding result in assay [3] was “binds”.

B4: GST-cJun(1-79), GST fused to c-Jun AA 1-79 (other)
chain: MTAKMETTFYDDALNASFLPSESGPYGYSNPKILKQSMTLNLADPVGSLKPHLRAKNSDLLTSPDVGLLKLASPELERL
notes: also called GST fusion protein containing AA 1-79 of c-Jun; not shown: glutathione-S-transferase (GST) carrier encoded by pGEX3X (Pharmacia)
B4: the binding result in assay [4] is “binds”.

B5: GST-cJun(43-223), GST fused to c-Jun AA 43-223 (other)
chain: ADPVGSLKPHLRAKNSDLLTSPDVGLLKLASPELERLIIQSSNGHITTTPTPTQFLCPKNVTDEQEGFAEGFVRALAELHSQNTLPSVTSAAQPVNGAGMVAPAVASVAGGSGSGGFSASLHSEPPVYANLSNFNPGALSSGGGAPSYGAAGLAFPAQPQQQQQPPHHLPQQMPVQHPRLQ
notes: also called removal of AA 1-42; deletion of residues 1-42; not shown: GST carrier (pGEX3X, Pharmacia) and the vector junction residues
In the case of B5, the binding result in assay [2] and in assay [5] was “no binding” each time.
